Measured values as given in the supplement of paper PMC5998384.

Columns and labels:
HeLa Kyoto [1] = assay: solubility in G1/S (NP-40 vs SDS abundance) (log2 ratio); higher = more soluble; settings: cell cycle stage: G1/S
HeLa Kyoto [2] = assay: melting temperature (median over replicates), in situ; higher = more thermally stable
HeLa Kyoto [3] = assay: solubility change mitosis vs G1/S (difference of NP-40 vs SDS log2 ratios) (log2 ratio difference); higher = more soluble in mitosis
HeLa Kyoto [4] = assay: thermal stability score vs G1/S (z-score of summed log2 fold changes over temperatures); higher = more thermally stable than in G1/S
[5] = cell cycle stage: early G1 (4.5 h after nocodazole release)
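For melting temperature (median over replicates), in situ in this document: HeLa Kyoto cells synchronized by double thymidine or nocodazole block, proteins quantified by TMT10plex mass spectrometry, three independent biological replicates.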
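For solubility change mitosis vs G1/S (difference of NP-40 vs SDS log2 ratios) in this document: synchronized HeLa Kyoto cells (double thymidine block for G1/S, nocodazole release for mitosis), protein amounts in NP-40 versus SDS lysates quantified by mass spectrometry, three biological replicates.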
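For solubility in G1/S (NP-40 vs SDS abundance) in this document: HeLa Kyoto cells arrested at G1/S by double thymidine block, proteins quantified by TMT10plex mass spectrometry in mild NP-40 versus SDS extracts, three biological replicates.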
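For thermal stability score vs G1/S (z-score of summed log2 fold changes over temperatures) in this document: synchronized HeLa Kyoto cells, proteins quantified by TMT10plex mass spectrometry, three biological replicates, mitosis taken 0.5 h after nocodazole release, G1/S directly after double thymidine block.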

GALNT2, sequence (chain, as listed by the source): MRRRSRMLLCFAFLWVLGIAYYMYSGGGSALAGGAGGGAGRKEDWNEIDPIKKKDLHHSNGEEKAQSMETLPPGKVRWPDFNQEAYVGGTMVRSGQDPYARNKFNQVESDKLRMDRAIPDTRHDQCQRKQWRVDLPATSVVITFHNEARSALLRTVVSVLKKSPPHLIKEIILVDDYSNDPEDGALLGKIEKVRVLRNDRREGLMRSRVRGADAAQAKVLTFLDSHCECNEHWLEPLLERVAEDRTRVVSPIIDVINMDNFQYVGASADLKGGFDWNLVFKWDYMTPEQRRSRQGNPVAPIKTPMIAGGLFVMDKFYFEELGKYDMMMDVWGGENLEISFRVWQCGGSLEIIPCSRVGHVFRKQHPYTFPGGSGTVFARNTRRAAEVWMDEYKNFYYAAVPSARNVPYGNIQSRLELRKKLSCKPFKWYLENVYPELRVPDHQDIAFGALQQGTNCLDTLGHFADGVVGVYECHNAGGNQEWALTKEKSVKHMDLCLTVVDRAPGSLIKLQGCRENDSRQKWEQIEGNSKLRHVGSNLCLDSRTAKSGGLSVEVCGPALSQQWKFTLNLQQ

| Substance | solubility in G1/S (log2) (HeLa Kyoto [1]) | melting temperature (HeLa Kyoto [2]; cell cycle stage: G1/S) [°C] | melting temperature (HeLa Kyoto [2]; cell cycle stage: mitosis) [°C] | solubility change mitosis (log2) (HeLa Kyoto [3]) | thermal stability score (HeLa Kyoto [4]; [5]) | thermal stability score (HeLa Kyoto [4]; cell cycle stage: mitosis) |
| --- | --- | --- | --- | --- | --- | --- |
| MAAVDLEKLRASGAGKAIGVLTSGGDAQGMNAAVRAVTRMGIYVGAKVFLIYEGYEGLVEGGENIKQANWLSVSNIIQLGGTIIGSARCKAFTTREGRRAAAYNLVQHGITNLCVIGGDGSLTGANIFRSEWGSLLEELVAEGKISETTARTYSHLNIAGLVGSIDNDFCGTDMTIGTDSALHRIMEVIDAITTTAQSHQRTFVLEVMGRHCGYLALVSALASGADWLFIPEAPPEDGWENFMCERLGETRSRGSRLNIIIIAEGAIDRNGKPISSSYVKDLVVQRLGFDTRVTVLGHVQRGGTPSAFDRILSSKMGMEAVMALLEATPDTPACVVTLSGNQSVRLPLMECVQMTKEVQKAMDDKRFDEATQLRGGSFENNWNIYKLLAHQKPPKEKSNFSLAILNVGAPAAGMNAAVRSAVRTGISHGHTVYVVHDGFEGLAKGQVQEVGWHDVAGWLGRGGSMLGTKRTLPKGQLESIVENIRIYGIHALLVVGGFEAYEGVLQLVEARGRYEELCIVMCVIPATISNNVPGTDFSLGSDTAVNAAMESCDRIKQSASGTKRRVFIVETMGGYCGYLATVTGIAVGADAAYVFEDPFNIHDLKVNVEHMTEKMKTDIQRGLVLRNEKCHDYYTTEFLYNLYSSEGKGVFDCRTNVLGHLQQGGAPTPFDRNYGTKLGVKAMLWLSEKLREVYRKGRVFANAPDSACVIGLKKKAVAFSPVTELKKDTDFEHRMPREQWWLSLRLMLKMLAQYRISMAAYVSGELEHVTRRTLSMDKGF [PFKL] | -0.0607 | 58.6 | 58.1 | -0.179 | -1.97 | -2.04 |
| MAMQAAKRANIRLPPEVNRILYIRNLPYKITAEEMYDIFGKYGPIRQIRVGNTPETRGTAYVVYEDIFDAKNACDHLSGFNVCNRYLVVLYYNANRAFQKMDTKKKEEQLKLLKEKYGINTDPPK [SF3B6] | -0.381 | 51.1 | 51.2 | 0.618 | -2.41 | -2.34 |
| MAHSKTRTNDGKITYPPGVKEISDKISKEEMVRRLKMVVKTFMDMDQDSEEEKELYLNLALHLASDFFLKHPDKDVRLLVACCLADIFRIYAPEAPYTSPDKLKDIFMFITRQLKGLEDTKSPQFNRYFYLLENIAWVKSYNICFELEDSNEIFTQLYRTLFSVINNGHNQKVHMHMVDLMSSIICEGDTVSQELLDTVLVNLVPAHKNLNKQAYDLAKALLKRTAQAIEPYITNFFNQVLMLGKTSISDLSEHVFDLILELYNIDSHLLLSVLPQLEFKLKSNDNEERLQVVKLLAKMFGAKDSELASQNKPLWQCYLGRFNDIHVPIRLECVKFASHCLMNHPDLAKDLTEYLKVRSHDPEEAIRHDVIVSIVTAAKKDILLVNDHLLNFVRERTLDKRWRVRKEAMMGLAQIYKKYALQSAAGKDAAKQIAWIKDKLLHIYYQNSIDDRLLVERIFAQYMVPHNLETTERMKCLYYLYATLDLNAVKALNEMWKCQNLLRHQVKDLLDLIKQPKTDASVKAIFSKVMVITRNLPDPGKAQDFMKKFTQVLEDDEKIRKQLEVLVSPTCSCKQAEGCVREITKKLGNPKQPTNPFLEMIKFLLERIAPVHIDTESISALIKQVNKSIDGTADDEDEGVPTDQAIRAGLELLKVLSFTHPISFHSAETFESLLACLKMDDEKVAEAALQIFKNTGSKIEEDFPHIRSALLPVLHHKSKKGPPRQAKYAIHCIHAIFSSKETQFAQIFEPLHKSLDPSNLEHLITPLVTIGHIALLAPDQFAAPLKSLVATFIVKDLLMNDRLPGKKTTKLWVPDEEVSPETMVKIQAIKMMVRWLLGMKNNHSKSGTSTLRLLTTILHSDGDLTEQGKISKPDMSRLRLAAGSAIVKLAQEPCYHEIITLEQYQLCALAINDECYQVRQVFAQKLHKGLSRLRLPLEYMAICALCAKDPVKERRAHARQCLVKNINVRREYLKQHAAVSEKLLSLLPEYVVPYTIHLLAHDPDYVKVQDIEQLKDVKECLWFVLEILMAKNENNSHAFIRKMVENIKQTKDAQGPDDAKMNEKLYTVCDVAMNIIMSKSTTYSLESPKDPVLPARFFTQPDKNFSNTKNYLPPEMKSFFTPGKPKTTNVLGAVNKPLSSAGKQSQTKSSRMETVSNASSSSNPSSPGRIKGRLDSSEMDHSENEDYTMSSPLPGKKSDKRDDSDLVRSELEKPRGRKKTPVTEQEEKLGMDDLTKLVQEQKPKGSQRSRKRGHTASESDEQQWPEEKRLKEDILENEDEQNSPPKKGKRGRPPKPLGGGTPKEEPTMKTSKKGSKKKSGPPAPEEEEEEERQSGNTEQKSKSKQHRVSRRAQQRAESPESSAIESTQSTPQKGRGRPSKTPSPSQPKKNVRVGRSKQAATKENDSSEEVDVFQGSSPVDDIPQEETEEEEVSTVNVRRRSAKRERR [PDS5B] | -0.302 | 49.2 | 49.4 | 0.216 | -0.564 | 0.534 |
| MAGRGGAARPNGPAAGNKICQFKLVLLGESAVGKSSLVLRFVKGQFHEYQESTIGAAFLTQTVCLDDTTVKFEIWDTAGQERYHSLAPMYYRGAQAAIVVYDITNTDTFARAKNWVKELQRQASPNIVIALAGNKADLASKRAVEFQEAQAYADDNSLLFMETSAKTAMNVNEIFMAIAKKLPKNEPQNATGAPGRNRGVDLQENNPASRSQCCSN [RAB5C] | 0.382 | 58.7 | 59.4 | -0.161 | -2.16 | -3.11 |
| GALNT2 | -0.0412 | 51.6 | 52 | -0.0991 | 9.37 | 17.4 |
| MASSAQSGGSSGGPAVPTVQRGIIKMVLSGCAIIVRGQPRGGPPPERQINLSNIRAGNLARRAAATQPDAKDTPDEPWAFPAREFLRKKLIGKEVCFTIENKTPQGREYGMIYLGKDTNGENIAESLVAEGLATRREGMRANNPEQNRLSECEEQAKAAKKGMWSEGNGSHTIRDLKYTIENPRHFVDSHHQKPVNAIIEHVRDGSVVRALLLPDYYLVTVMLSGIKCPTFRREADGSETPEPFAAEAKFFTESRLLQRDVQIILESCHNQNILGTILHPNGNITELLLKEGFARCVDWSIAVYTRGAEKLRAAERFAKERRLRIWRDYVAPTANLDQKDKQFVAKVMQVLNADAIVVKLNSGDYKTIHLSSIRPPRLEGENTQDKNKKLRPLYDIPYMFEAREFLRKKLIGKKVNVTVDYIRPASPATETVPAFSERTCATVTIGGINIAEALVSKGLATVIRYRQDDDQRSSHYDELLAAEARAIKNGKGLHSKKEVPIHRVADISGDTQKAKQFLPFLQRAGRSEAVVEYVFSGSRLKLYLPKETCLITFLLAGIECPRGARNLPGLVQEGEPFSEEATLFTKELVLQREVEVEVESMDKAGNFIGWLHIDGANLSVLLVEHALSKVHFTAERSSYYKSLLSAEEAAKQKKEKVWAHYEEQPVEEVMPVLEEKERSASYKPVFVTEITDDLHFYVQDVETGTQLEKLMENMRNDIASHPPVEGSYAPRRGEFCIAKFVDGEWYRARVEKVESPAKIHVFYIDYGNREVLPSTRLGTLSPAFSTRVLPAQATEYAFAFIQVPQDDDARTDAVDSVVRDIQNTQCLLNVEHLSAGCPHVTLQFADSKGDVGLGLVKEGLVMVEVRKEKQFQKVITEYLNAQESAKSARLNLWRYGDFRADDADEFGYSR [SND1] | -0.0826 | 47.9 | 48.1 | 0.0116 | 0.34 | 3.69 |
| MRGPEPGPQPTMEGDVLDTLEALGYKGPLLEEQALTKAAEGGLSSPEFSELCIWLGSQIKSLCNLEESITSAGRDDLESFQLEISGFLKEMACPYSVLISGDIKDRLKKKEDCLKLLLFLSTELQASQILQNKKHKNSQLDKNSEVYQEVQAMFDTLGIPKSTTSDIPHMLNQVESKVKDILSKVQKNHVGKPLLKMDLNSEQAEQLERINDALSCEYECRRRMLMKRLDVTVQSFGWSDRAKVKTDDIARIYQPKRYALSPKTTITMAHLLAAREDLSKIIRTSSGTSREKTACAINKVLMGRVPDRGGRPNEIEPPPPEMPPWQKRQEGGGGRGGWGGGGGGGGRGGGGGGGGRGGWGGGGGGWGGGGGGGGGWGGGGGGGRGGFQGRGDYGGRGGYGGRGGYGGRGYGDPYGGGGGGGGGGGGGGGYRRY [FAM98B] | 0.558 | 50.3 | 51.5 | 0.0481 | -0.356 | 0.627 |
| MTVARPSVPAALPLLGELPRLLLLVLLCLPAVWGDCGLPPDVPNAQPALEGRTSFPEDTVITYKCEESFVKIPGEKDSVICLKGSQWSDIEEFCNRSCEVPTRLNSASLKQPYITQNYFPVGTVVEYECRPGYRREPSLSPKLTCLQNLKWSTAVEFCKKKSCPNPGEIRNGQIDVPGGILFGATISFSCNTGYKLFGSTSSFCLISGSSVQWSDPLPECREIYCPAPPQIDNGIIQGERDHYGYRQSVTYACNKGFTMIGEHSIYCTVNNDEGEWSGPPPECRGKSLTSKVPPTVQKPTTVNVPTTEVSPTSQKTTTKTTTPNAQATRSTPVSRTTKHFHETTPNKGSGTTSGTTRLLSGHTCFTLTGLLGTLVTMGLLT [CD55] | -0.786 | 63.5 | 63.9 | -0.0285 | -1.88 | -1.77 |
| MSNVSEERRKRQQNIKEGLQFIQSPLSYPGTQEQYAVYLRALVRNLFNEGNDVYREHDWNNSISQYTEALNIADYAKSEEILIPKEIIEKLYINRIACYSNMGFHDKVLEDCNIVLSLNASNCKALYRKSKALSDLGRYKKAYDAVAKCSLAVPQDEHVIKLTQELAQKLGFKIRKAYVRAELSLKSVPGDGATKALNHSVEDIEPDLLTPRQEAVPVVSLPAPSFSHEVGSELASVPVMPLTSILPLQVEESALPSAVLANGGKMPFTMPEAFLDDGDMVLGDELDDLLDSAPETNETVMPSALVRGPLQTASVSPSMPFSASLLGTLPIGARYAPPPSFSEFYPPLTSSLEDFCSSLNSFSMSESKRDLSTSTSREGTPLNNSNSSLLLMNGPGSLFASENFLGISSQPRNDFGNFFGSAVTKPSSSVTPRHPLEGTHELRQACQICFVKSGPKLMDFTYHANIDHKCKKDILIGRIKNVEDKSWKKIRPRPTKTNYEGPYYICKDVAAEEECRYSGHCTFAYCQEEIDVWTLERKGAFSREAFFGGNGKINLTVFKLLQEHLGEFIFLCEKCFDHKPRMISKRNKDNSTACSHPVTKHEFEDNKCLVHILRETTVKYSKIRSFHGQCQLDLCRHEVRYGCLREDECFYAHSLVELKVWIMQNETGISHDAIAQESKRYWQNLEANVPGAQVLGNQIMPGFLNMKIKFVCAQCLRNGQVIEPDKNRKYCSAKARHSWTKDRRAMRVMSIERKKWMNIRPLPTKKQMPLQFDLCNHIASGKKCQYVGNCSFAHSPEEREVWTYMKENGIQDMEQFYELWLKSQKNEKSEDIASQSNKENGKQIHMPTDYAEVTVDFHCWMCGKNCNSEKQWQGHISSEKHKEKVFHTEDDQYCWQHRFPTGYFSICDRYMNGTCPEGNSCKFAHGNAELHEWEERRDALKMKLNKARKDHLIGPNDNDFGKYSFLFKDLN [ZC3H7A] | -0.49 | 48.5 | 47.7 | 0.169 | 0.548 | 2.36 |
| MRLREPLLSGSAAMPGASLQRACRLLVAVCALHLGVTLVYYLAGRDLSRLPQLVGVSTPLQGGSNSAAAIGQSSGELRTGGARPPPPLGASSQPRPGGDSSPVVDSGPGPASNLTSVPVPHTTALSLPACPEESPLLVGPMLIEFNMPVDLELVAKQNPNVKMGGRYAPRDCVSPHKVAIIIPFRNRQEHLKYWLYYLHPVLQRQQLDYGIYVINQAGDTIFNRAKLLNVGFQEALKDYDYTCFVFSDVDLIPMNDHNAYRCFSQPRHISVAMDKFGFSLPYVQYFGGVSALSKQQFLTINGFPNNYWGWGGEDDDIFNRLVFRGMSISRPNAVVGRCRMIRHSRDKKNEPNPQRFDRIAHTKETMLSDGLNSLTYQVLDVQRYPLYTQITVDIGTPS [B4GALT1] | -0.0686 | 53.1 | 54 | 0.0769 | -2.25 | -1.74 |
| MMAAGAALALALWLLMPPVEVGGAGPPPIQDGEFTFLLPAGRKQCFYQSAPANASLETEYQVIGGAGLDVDFTLESPQGVLLVSESRKADGVHTVEPTEAGDYKLCFDNSFSTISEKLVFFELIFDSLQDDEEVEGWAEAVEPEEMLDVKMEDIKESIETMRTRLERSIQMLTLLRAFEARDRNLQEGNLERVNFWSAVNVAVLLLVAVLQVCTLKRFFQDKRPVPT [TMED1] | 0.437 | 55.1 | 57.2 | -0.147 | 2.89 | 2.9 |
